Numbered stars: 1 amine (or outer) side, 2 acyl side, 3 side chain; on linkers, the order of the positions; unused ones are H or OH. Bridge positions count the residues as written; N and C are the ends. Side chains are listed from the residue outwards. Ends that are not written are not given here. * marks the point of attachment. C20 diacid = O=C(O)CCCCCCCCCCCCCCCCCCC(=O)*; γGlu = O=C(O)[C@H](CCC(=O)[*:2])N[*:1]; AEEA = NCCOCCOCC(=O)O
How the values were obtained:
rat calcitonin receptor [1] = target: T1, rat calcitonin receptor (rat, UniProt P32214 25-516); assay: IC50 on rat CTR divided by IC50 on rat amylin receptor (Assays VIII/VI)
T1 construct: whole, on cells; Used as membranes prepared from BHK tk'ts 13 cells transiently transfected with the rat calcitonin receptor (Assay VIII); also called rCTR; rat calcitonin (a) receptor
T1 sequence (looked up): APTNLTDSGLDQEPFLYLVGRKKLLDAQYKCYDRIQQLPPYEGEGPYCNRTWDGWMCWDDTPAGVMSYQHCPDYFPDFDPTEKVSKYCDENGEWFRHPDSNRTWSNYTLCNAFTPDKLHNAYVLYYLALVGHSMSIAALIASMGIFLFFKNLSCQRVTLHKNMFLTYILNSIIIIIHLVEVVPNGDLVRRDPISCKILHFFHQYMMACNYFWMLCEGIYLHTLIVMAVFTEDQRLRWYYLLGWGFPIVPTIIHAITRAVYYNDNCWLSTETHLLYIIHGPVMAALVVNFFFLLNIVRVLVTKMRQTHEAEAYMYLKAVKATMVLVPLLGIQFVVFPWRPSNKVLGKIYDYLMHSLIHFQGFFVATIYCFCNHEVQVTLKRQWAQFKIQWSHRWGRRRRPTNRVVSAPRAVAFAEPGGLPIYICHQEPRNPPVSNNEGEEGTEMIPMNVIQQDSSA

[2] = target: T2, rat amylin receptor (rat calcitonin receptor + rat RAMP 3) (rat, UniProt P32214 25-516; Q9JJ73 23-147); assay: SPA competition with 125I-rat amylin, membranes of BHK cells with rat CTR + rat RAMP3 (Assay VI)
T2 construct: whole, on cells; Used as membranes prepared from BHK tk'ts 13 cells transiently transfected with rat calcitonin receptor and rat RAMP 3 (Assay VI); also called rAmylin-R; rat amylin 3(a) receptor
T2 sequence (looked up) 1: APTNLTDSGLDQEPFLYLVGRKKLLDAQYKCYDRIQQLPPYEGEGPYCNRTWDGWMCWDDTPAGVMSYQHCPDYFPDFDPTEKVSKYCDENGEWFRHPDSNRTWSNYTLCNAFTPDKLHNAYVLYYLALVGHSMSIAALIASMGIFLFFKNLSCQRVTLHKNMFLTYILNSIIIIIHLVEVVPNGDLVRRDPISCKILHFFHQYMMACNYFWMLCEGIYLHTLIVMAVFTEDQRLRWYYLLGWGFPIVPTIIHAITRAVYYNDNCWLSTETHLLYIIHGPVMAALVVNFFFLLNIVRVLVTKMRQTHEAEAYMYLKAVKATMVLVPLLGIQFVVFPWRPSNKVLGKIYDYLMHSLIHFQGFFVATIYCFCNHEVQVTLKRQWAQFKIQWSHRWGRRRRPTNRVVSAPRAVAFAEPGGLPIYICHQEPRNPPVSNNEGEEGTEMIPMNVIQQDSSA
T2 sequence (looked up) 2: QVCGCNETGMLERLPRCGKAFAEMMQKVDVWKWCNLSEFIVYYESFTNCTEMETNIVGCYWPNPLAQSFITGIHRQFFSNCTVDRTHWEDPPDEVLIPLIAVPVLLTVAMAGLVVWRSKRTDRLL

[3] = target: T3, human calcitonin receptor (human, UniProt P30988 25-474); assay: IC50 on human CTR divided by IC50 on human amylin receptor (Assays VII/V)
T3 construct: whole, on cells; Used as membranes prepared from a BHK tk'ts 13 cell line stably transfected with the human calcitonin receptor (Assay VII); also called hCTR; hCT
T3 sequence (looked up): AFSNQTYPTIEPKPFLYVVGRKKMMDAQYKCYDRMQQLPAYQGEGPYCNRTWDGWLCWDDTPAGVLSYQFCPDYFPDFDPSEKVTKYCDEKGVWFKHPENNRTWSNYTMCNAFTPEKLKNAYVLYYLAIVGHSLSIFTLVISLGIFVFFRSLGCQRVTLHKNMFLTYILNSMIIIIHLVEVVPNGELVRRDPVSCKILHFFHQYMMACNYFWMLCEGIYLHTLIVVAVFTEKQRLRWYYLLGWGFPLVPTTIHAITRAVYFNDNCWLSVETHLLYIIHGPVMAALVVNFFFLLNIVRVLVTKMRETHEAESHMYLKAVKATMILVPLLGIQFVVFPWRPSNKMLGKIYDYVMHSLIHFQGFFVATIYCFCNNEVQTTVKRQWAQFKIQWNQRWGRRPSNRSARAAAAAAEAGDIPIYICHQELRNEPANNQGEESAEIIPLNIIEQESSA
Protocol: The resulting pellet was resuspended, homogenized and centrifuged (20.000 rpm, 15 min) in a buffer containing 20 mM Na-HEPES and 0.1 mM EDTA (pH 7.4, buffer 2). The resulting pellet was resuspended in buffer 2 and protein concentration was measured (BCA protein Assay, Pierce). The homogenate was kept cold during the whole procedure. The membranes were kept at −80° C. until use. The assay was performed in a 384 well Optiplate (PerkinElmer) in a total volume of 40 ul. Membranes were mixed with SPA beads. Final concentration of membranes 35 ng/μL final and SPA beads was 0.05 mg/well. Test-compounds were dissolved in DMSO and further diluted in assay buffer (50 mM Hepes, pH 7.4, 1 mM CaCl2, 5 mM MgCl₂, 0.1% OA and 0.02% Tween20). […] The final mixture was incubated with shaking at 400 rpm for 120 min at 25° C. prior to centrifugation (1500 rpm, 10 min). Samples were analyzed on TopCounter™ (Packard). The IC₅₀ was calculated using (one site binding competition analysis) GraphPad Prism5 as a measure of receptor affinity.
Membranes were prepared in the following way; the cells were rinsed with PBS and incubated with Versene for approximately 5 min before harvesting. The cells were flushed with PBS and the cell-suspension was centrifuged for 5 min at 1000 rpm. Cells were homogenized (Ultrathurrax) in a buffer containing 20 mM Na-HEPES and 10 mM EDTA (pH 7.4) and centrifuged at 20.000 rpm for 15 min. The resulting pellet was resuspended, homogenized and centrifuged (20.000 rpm, 15 min) in a buffer containing 20 mM Na-HEPES and 0.1 mM EDTA (pH 7.4, buffer 2). The resulting pellet was resuspended in buffer 2 and protein concentration was measured (BCA protein Assay, Pierce). The homogenate was kept cold during the whole procedure. The membranes were kept at −80° C. until use. Assay was performed in a 384 well Optiplate (PerkinElmer) in a total volume of 40 ul. Membranes were mixed with SPA beads.

rat calcitonin receptor [4] = target: T1, rat calcitonin receptor; assay: SPA competition with 125I-calcitonin, membranes of BHK cells with rat CTR (Assay VIII)

Binder | Ratio rCT/rAmylin binding (rat calcitonin receptor [1]) | IC50 [2] | Ratio hCT/hAmylin binding [3] | IC50 (rat calcitonin receptor [4])
K([AEEA-γGlu-C20 diacid])CNTATCATQRLANFLRHSSPNFGAIPPSTNVGPNTY-NH2 (disulfide 2-7; N-terminus assumed; SMILES CC[C@H](C)[C@H](NC(=O)[C@H](C)NC(=O)CNC(=O)[C@H](Cc1ccccc1)NC(=O)[C@H](CC(N)=O)NC(=O)[C@@H]1CCCN1C(=O)[C@H](CO)NC(=O)[C@H](CO)NC(=O)[C@H](Cc1c[nH]cn1)NC(=O)[C@H](CCCNC(=N)N)NC(=O)[C@H](CC(C)C)NC(=O)[C@H](Cc1ccccc1)NC(=O)[C@H](CC(N)=O)NC(=O)[C@H](C)NC(=O)[C@H](CC(C)C)NC(=O)[C@H](CCCNC(=N)N)NC(=O)[C@H](CCC(N)=O)NC(=O)[C@@H](NC(=O)[C@H](C)NC(=O)[C@@H]1CSSC[C@H](NC(=O)[C@@H](N)CCCCNC(=O)COCCOCCNC(=O)CC[C@H](NC(=O)CCCCCCCCCCCCCCCCCCC(=O)O)C(=O)O)C(=O)N[C@@H](CC(N)=O)C(=O)N[C@@H]([C@@H](C)O)C(=O)N[C@@H](C)C(=O)N[C@@H]([C@@H](C)O)C(=O)N1)[C@@H](C)O)C(=O)N1CCC[C@H]1C(=O)N1CCC[C@H]1C(=O)N[C@@H](CO)C(=O)N[C@H](C(=O)N[C@@H](CC(N)=O)C(=O)N[C@H](C(=O)NCC(=O)N1CCC[C@H]1C(=O)N[C@@H](CC(N)=O)C(=O)N[C@H](C(=O)N[C@@H](Cc1ccc(O)cc1)C(N)=O)[C@@H](C)O)C(C)C)[C@@H](C)O, Analogue of human amylin; also called compound 55) | 77.2 | 0.081 nM | 51.8 | 6.25 nM
K([AEEA-γGlu-C20 diacid])CNTATCATQRLANFLRHSSPNFGAIPSPTPVGSNTY-NH2 (disulfide 2-7; N-terminus assumed; SMILES CC[C@H](C)[C@H](NC(=O)[C@H](C)NC(=O)CNC(=O)[C@H](Cc1ccccc1)NC(=O)[C@H](CC(N)=O)NC(=O)[C@@H]1CCCN1C(=O)[C@H](CO)NC(=O)[C@H](CO)NC(=O)[C@H](Cc1c[nH]cn1)NC(=O)[C@H](CCCNC(=N)N)NC(=O)[C@H](CC(C)C)NC(=O)[C@H](Cc1ccccc1)NC(=O)[C@H](CC(N)=O)NC(=O)[C@H](C)NC(=O)[C@H](CC(C)C)NC(=O)[C@H](CCCNC(=N)N)NC(=O)[C@H](CCC(N)=O)NC(=O)[C@@H](NC(=O)[C@H](C)NC(=O)[C@@H]1CSSC[C@H](NC(=O)[C@@H](N)CCCCNC(=O)COCCOCCNC(=O)CC[C@H](NC(=O)CCCCCCCCCCCCCCCCCCC(=O)O)C(=O)O)C(=O)N[C@@H](CC(N)=O)C(=O)N[C@@H]([C@@H](C)O)C(=O)N[C@@H](C)C(=O)N[C@@H]([C@@H](C)O)C(=O)N1)[C@@H](C)O)C(=O)N1CCC[C@H]1C(=O)N[C@@H](CO)C(=O)N1CCC[C@H]1C(=O)N[C@H](C(=O)N1CCC[C@H]1C(=O)N[C@H](C(=O)NCC(=O)N[C@@H](CO)C(=O)N[C@@H](CC(N)=O)C(=O)N[C@H](C(=O)N[C@@H](Cc1ccc(O)cc1)C(N)=O)[C@@H](C)O)C(C)C)[C@@H](C)O, Analogue of human amylin; also called compound 54) | 179 | 0.049 nM | 146 | 8.79 nM
K([AEEA-γGlu-C20 diacid])CNTATCATQRLANFLRHSSPNFGAIPSPTNVGPNTY-NH2 (disulfide 2-7; N-terminus assumed; SMILES CC[C@H](C)[C@H](NC(=O)[C@H](C)NC(=O)CNC(=O)[C@H](Cc1ccccc1)NC(=O)[C@H](CC(N)=O)NC(=O)[C@@H]1CCCN1C(=O)[C@H](CO)NC(=O)[C@H](CO)NC(=O)[C@H](Cc1c[nH]cn1)NC(=O)[C@H](CCCNC(=N)N)NC(=O)[C@H](CC(C)C)NC(=O)[C@H](Cc1ccccc1)NC(=O)[C@H](CC(N)=O)NC(=O)[C@H](C)NC(=O)[C@H](CC(C)C)NC(=O)[C@H](CCCNC(=N)N)NC(=O)[C@H](CCC(N)=O)NC(=O)[C@@H](NC(=O)[C@H](C)NC(=O)[C@@H]1CSSC[C@H](NC(=O)[C@@H](N)CCCCNC(=O)COCCOCCNC(=O)CC[C@H](NC(=O)CCCCCCCCCCCCCCCCCCC(=O)O)C(=O)O)C(=O)N[C@@H](CC(N)=O)C(=O)N[C@@H]([C@@H](C)O)C(=O)N[C@@H](C)C(=O)N[C@@H]([C@@H](C)O)C(=O)N1)[C@@H](C)O)C(=O)N1CCC[C@H]1C(=O)N[C@@H](CO)C(=O)N1CCC[C@H]1C(=O)N[C@H](C(=O)N[C@@H](CC(N)=O)C(=O)N[C@H](C(=O)NCC(=O)N1CCC[C@H]1C(=O)N[C@@H](CC(N)=O)C(=O)N[C@H](C(=O)N[C@@H](Cc1ccc(O)cc1)C(N)=O)[C@@H](C)O)C(C)C)[C@@H](C)O, Analogue of human amylin; also called compound 56) | 131 | 0.04 nM | 42.6 | 5.26 nM
K([AEEA-γGlu-C20 diacid])CNTATCATQRLANFLRHSSPNFGAIPSSTPVGSHTY-NH2 (disulfide 2-7; N-terminus assumed; SMILES CC[C@H](C)[C@H](NC(=O)[C@H](C)NC(=O)CNC(=O)[C@H](Cc1ccccc1)NC(=O)[C@H](CC(N)=O)NC(=O)[C@@H]1CCCN1C(=O)[C@H](CO)NC(=O)[C@H](CO)NC(=O)[C@H](Cc1c[nH]cn1)NC(=O)[C@H](CCCNC(=N)N)NC(=O)[C@H](CC(C)C)NC(=O)[C@H](Cc1ccccc1)NC(=O)[C@H](CC(N)=O)NC(=O)[C@H](C)NC(=O)[C@H](CC(C)C)NC(=O)[C@H](CCCNC(=N)N)NC(=O)[C@H](CCC(N)=O)NC(=O)[C@@H](NC(=O)[C@H](C)NC(=O)[C@@H]1CSSC[C@H](NC(=O)[C@@H](N)CCCCNC(=O)COCCOCCNC(=O)CC[C@H](NC(=O)CCCCCCCCCCCCCCCCCCC(=O)O)C(=O)O)C(=O)N[C@@H](CC(N)=O)C(=O)N[C@@H]([C@@H](C)O)C(=O)N[C@@H](C)C(=O)N[C@@H]([C@@H](C)O)C(=O)N1)[C@@H](C)O)C(=O)N1CCC[C@H]1C(=O)N[C@@H](CO)C(=O)N[C@@H](CO)C(=O)N[C@H](C(=O)N1CCC[C@H]1C(=O)N[C@H](C(=O)NCC(=O)N[C@@H](CO)C(=O)N[C@@H](Cc1c[nH]cn1)C(=O)N[C@H](C(=O)N[C@@H](Cc1ccc(O)cc1)C(N)=O)[C@@H](C)O)C(C)C)[C@@H](C)O, Analogue of human amylin; also called compound 57) | 135 | 0.181 nM | 133 | 24.4 nM

Reference: patent publication US20140087995A1 (published 2014)
